From article PMC3731059

Assays:
Assay in all cases: FXa generation assay
[1] = target: FVIIIa Arg2116Ala (thrombin-activated B domainless factor VIII variant) (UniProt P00451)
[2] = target: FVIIIa Gly1750Cys/Arg2116Cys (thrombin-activated B domainless factor VIII variant) (UniProt P00451)
[3] = target: FVIIIa Ser2029Cys/Pro2292Cys (thrombin-activated B domainless factor VIII variant) (UniProt P00451)
[4] = target: WT FVIIIa (thrombin-activated B domainless factor VIII) (UniProt P00451)
[5] = target: FVIIIa Arg2116Val (thrombin-activated B domainless factor VIII variant) (UniProt P00451)
[6] = target: FVIIIa Ala1866Cys/Ser2119Cys (thrombin-activated B domainless factor VIII variant) (UniProt P00451)

factor IXaβ (enzyme)
Kd [1]: 0.45 nM | Kd [2]: 0.44 nM | Kd [3]: 0.33 nM | Kd [4]: 0.43 nM | Kd [5]: 0.4 nM | Kd [6]: 0.4 nM
